Tests used:
Glu207 = Glu207 (UniProt position 207, VASVQEEIGLR); test: kinetics; conditions: not given for the pH series (standard assay: KCl 316 mM), not given for the pH series (standard assay: 0.1 M HEPES pH 7.2)
[1] = target: T1, PfTET3 (TET3 aminopeptidase; PfTET3Zn) (Pyrococcus furiosus, UniProt Q8TZW4); test: Lys-pNA hydrolysis, pNA release at […] nm, EDTA titration, biphasic fit; type: biochemical; conditions: 85 °C; 5 mM Lys-pNA; 0.1 M HEPES pH 7.2, 316 mM KCl; 10 nM enzyme; metal chelation (M1 Zn2+ removal), not direct binding; first site of two; partial step; read-out: EC50_1
T1 construct: gene PF1861; Recombinant, pET-41c; purified as for PhTET3; homododecamer (about 500 kDa); as purified contains two Zn2+ per active site
T1 sequence (Q8TZW4 1-346): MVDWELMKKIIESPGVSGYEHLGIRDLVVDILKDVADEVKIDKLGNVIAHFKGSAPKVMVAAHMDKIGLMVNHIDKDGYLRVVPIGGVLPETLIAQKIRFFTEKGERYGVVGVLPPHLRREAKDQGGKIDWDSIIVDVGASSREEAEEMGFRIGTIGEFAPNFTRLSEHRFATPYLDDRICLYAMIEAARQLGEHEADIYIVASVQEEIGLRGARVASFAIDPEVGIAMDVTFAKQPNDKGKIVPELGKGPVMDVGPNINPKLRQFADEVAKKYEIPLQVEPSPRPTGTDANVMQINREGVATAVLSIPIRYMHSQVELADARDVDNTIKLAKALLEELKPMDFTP

Row | EC50 [1] [µM] | Molecule | pKa (Glu207; 20 °C, PfTET3Co: 300 uM Co2+ present (Co2+ in M1 and M3, Zn2+ in M2)) | pKa (Glu207; 20 °C, PfTET3Zn: as purified, Zn2+ in M1 and M2, no Co2+ added) | pKa (Glu207; 85 °C, PfTET3Co: 300 uM Co2+ present (Co2+ in M1 and M3, Zn2+ in M2)) | pKa (Glu207; 85 °C, PfTET3Zn: as purified, Zn2+ in M1 and M2, no Co2+ added)
1 |  | TET3 aminopeptidase (PfTET3; lysine-specific tetrahedral aminopeptidase) (Pyrococcus furiosus) | 5.6 | 5.9 | 4.45 | 4.75
2 | 13 | O=C(O)CN(CCN(CC(=O)O)CC(=O)O)CC(=O)O [EDTA] |  |  |  | 
